The values below come from publication PMC2176068, “Hepatoma derived growth factor binds DNA through the N-terminal PWWP domain”.

Series [1] concerns the target T1, GST-HDGF (Homo sapiens, UniProt P51858 1-240). The series can be described thus: competition; 100x unlabeled, labeled 80 bp probe; 10 mM Tris pH 7.5, 50 mM KCl, 1 mM DTT, 5% glycerol, 0.05% NP-40, 0.1 ug sheared salmon sperm DNA; 1 ug protein, 0.25 pmol probe, 30 min on ice; 5% PAGE in 0.1x TBE. Conditions: protein: recombinant, tags: N-terminal GST (pGEX-4T2).
The target in series [2] is T1, GST-HDGF. Nature of the series: EMSA; 10 mM Tris pH 7.5, 50 mM KCl, 1 mM DTT, 5% glycerol, 0.05% NP-40, 0.1 ug sheared salmon sperm DNA; 1 ug protein, 0.25 pmol probe, 30 min on ice; 5% PAGE in 0.1x TBE. Conditions: protein: recombinant, tags: N-terminal GST (pGEX-4T2), blunt.
Another series deals with His-HDGF-GFP (UniProt P51858 1-240). Described as above. Conditions: protein: recombinant; tags: His, GFP; label: 5' biotin (sense strand); blunt.
The target of another series is GST-HDGF Δ1-140 (Homo sapiens, UniProt P51858 1-140). The description is as above. Conditions: protein: recombinant; tags: N-terminal GST; label: 5' biotin (sense strand); blunt.
A further series deals with TNT-HDGF (untagged) (UniProt P51858 1-240). Described as above. Conditions: protein: ivt; tags: none; label: 5' biotin (sense strand); blunt.
The next series addresses GST-HDGF Δ70-237 (Homo sapiens, UniProt P51858 70-237). The description is as above. Conditions: protein: recombinant; tags: N-terminal GST; label: 5' biotin (sense strand); blunt.
A further series has as its target GST-HDGF Δ1-110 (Homo sapiens, UniProt P51858 1-110). The description is as above. Conditions: protein: recombinant; tags: N-terminal GST; label: 5' biotin (sense strand); blunt.
Another series deals with GST-HDGF Δ1-146 (Homo sapiens, UniProt P51858 1-146). Described as above. Conditions: protein: recombinant; tags: N-terminal GST; label: 5' biotin (sense strand); blunt.
GST-HDGF Δ1-146, sequence (P51858 1-146, stated change not applied): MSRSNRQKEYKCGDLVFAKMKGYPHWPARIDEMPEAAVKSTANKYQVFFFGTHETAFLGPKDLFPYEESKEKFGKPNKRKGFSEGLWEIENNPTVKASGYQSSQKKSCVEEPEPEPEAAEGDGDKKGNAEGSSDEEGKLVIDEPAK

T1 sequence (P51858 whole entry): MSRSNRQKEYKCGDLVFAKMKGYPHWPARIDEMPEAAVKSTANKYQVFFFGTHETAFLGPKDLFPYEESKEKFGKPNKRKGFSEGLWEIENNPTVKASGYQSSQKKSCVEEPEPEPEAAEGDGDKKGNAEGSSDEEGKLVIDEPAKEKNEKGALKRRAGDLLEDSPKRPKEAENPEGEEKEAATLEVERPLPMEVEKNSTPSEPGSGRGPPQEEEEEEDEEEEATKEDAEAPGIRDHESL
GST-HDGF Δ70-237, sequence (P51858 70-237, stated change not applied): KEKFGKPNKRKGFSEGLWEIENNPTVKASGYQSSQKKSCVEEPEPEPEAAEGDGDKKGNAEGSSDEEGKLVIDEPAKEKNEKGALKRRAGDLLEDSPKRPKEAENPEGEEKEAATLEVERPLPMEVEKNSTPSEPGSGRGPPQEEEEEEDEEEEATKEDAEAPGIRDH
TNT-HDGF (untagged), sequence (P51858 whole entry): as the sequence (P51858 whole entry) above
His-HDGF-GFP, sequence (P51858 whole entry): as above
GST-HDGF Δ1-110, sequence (P51858 1-110, stated change not applied): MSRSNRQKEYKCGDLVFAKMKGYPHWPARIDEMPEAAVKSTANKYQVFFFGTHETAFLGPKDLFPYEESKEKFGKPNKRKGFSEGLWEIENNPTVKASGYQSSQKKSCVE
GST-HDGF Δ1-140, sequence (P51858 1-140, stated change not applied): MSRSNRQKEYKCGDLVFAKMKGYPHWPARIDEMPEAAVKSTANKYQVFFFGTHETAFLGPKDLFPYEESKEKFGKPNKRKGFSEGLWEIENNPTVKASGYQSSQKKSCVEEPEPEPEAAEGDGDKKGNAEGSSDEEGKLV

B1: non-specific competitor (dsDNA)
DNA 1: TGCTGTTGACAGTGAGCGCGGCCAGCTTATAGTCATATATTAGTGAAGCCACAGATGTAATATATGACTATAAGCTGGCCTTGCCTACTGCCTCGGA
DNA 2: TCCGAGGCAGTAGGCAAGGCCAGCTTATAGTCATATATTACATCTGTGGCTTCACTAATATATGACTATAAGCTGGCCGCGCTCACTGTCAACAGCA
Turning to B1, in the series with GST-HDGF [1], the binding result is reported as “no binding”.

B2: 37 bp minimal probe (dsDNA)
DNA 1: CTTGAACTCCTGACCTCAGATGATCCATGTGCCTCGG
DNA 2: CCGAGGCACATGGATCATCTGAGGTCAGGAGTTCAAG
Turning to B2, the binding result with GST-HDGF [2] (label: 5' biotin) is “binds”.

B3: SMYD1 promoter 80 bp probe (dsDNA)
DNA 1: CAGGCTGGTCTTGAACTCCTGACCTCAGATGATCCATGTGCCTCGGCCTCCCAAGGTGGGGATTACAGGCGTGAGCCACC
DNA 2: GGTGGCTCACGCCTGTAATCCCCACCTTGGGAGGCCGAGGCACATGGATCATCTGAGGTCAGGAGTTCAAGACCAGCCTG
Regarding B3, the binding result in the series with His-HDGF-GFP is “binds”; with GST-HDGF [2] (label: 5' biotin (sense strand)), “binds”; with GST-HDGF Δ1-140, “binds”; in the series with TNT-HDGF (untagged), “binds”; in the series with GST-HDGF Δ70-237, “no binding”; with GST-HDGF Δ1-110, “binds”. Further, in the series with GST-HDGF Δ1-146, the binding result was “binds”.

B4: 80 bp specific competitor (unlabeled) (dsDNA)
DNA 1: B3 DNA 1
DNA 2: B3 DNA 2
As for B4, the binding result in the series with GST-HDGF [1] (blunt) is listed as “binds”.
